The text below walks through data of the supplement of paper PMC9170038.

For data set [1], the system named is MS2 coat protein. Description: apparent KD of MS2 coat protein, switch ON state; designed switch direction (-1 OFF switch, 1 ON switch): -1; higher = weaker reporter binding. The settings on record: FMN input: 0 or 200 uM; Eterna round: R93 (includes R88 designs). An outline of the steps: (§1)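 The buffer was 100 mM Tris-HCl pH 7.5 with 80 mM KCl and 4 mM MgCl2, used without or with constant ligand. In it, RNA switches transcribed on-chip from Illumina sequencing clusters were titrated with SNAP-549-labelled MS2 coat protein in twofold steps from 0.7 or 1.5 nM to 3 µM. Apparent KD for each design is the median of its normalised cluster binding-curve fits.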

The test system of data set [2] is MS2 coat protein. Description: apparent KD of MS2 coat protein, switch OFF state (with FMN for OFF switches, without FMN for ON switches); designed switch direction (-1 OFF switch, 1 ON switch): -1; higher = weaker reporter binding. Conditions: FMN input: 0 or 200 uM; Eterna round: R93 (includes R88 designs). An outline of the steps:
as §1

Regarding “CUCAAGUGAGGAUAUUCAAGAAAAGAAAAGAAAGAAAAGAAGAAGAAGGCACAUGAGGAUCACCCAUGUAAGAA [EteRNA is fun!]”, the “apparent KD of MS2 coat protein” value in data set [1] was 34.9 nM; in data set [2], 57.5 nM.
Consider “CUCAAGUGAGGAUAUUUAAGAAAAGAAGAGAAAGAAAAGAAAAAGAAGGCACAUGAGGAUCACCCAUGUAAGAA [EteRNA is fun!]”, for which the “apparent KD of MS2 coat protein” value in data set [1] was determined as 31.5 nM; in data set [2] it was 32.8 nM.
For “CUCAUGUCAGGAUAUCAGUAGUAAAAAAAAAAAAUUACUACUGAGAAGGGACAUGAGGAUCACCCAUGUCCCUU [EX4 301: Super Stable 1]”, the “apparent KD of MS2 coat protein” value in data set [1] was 20.4 nM; in data set [2] it was 16.7 nM.
“CUCAUGUGAGGAUAUCAGUAGUAAAAAAAAAAAAUUACUACUGAGAAGGCACAUGAGGAUCACCCAUGUGCCUU [EX4 325: Super Stable 25]”: the “apparent KD of MS2 coat protein” value was 18.9 nM in data set [1] and 15.5 nM in data set [2].
The corresponding values for “CUCAUGUGAGGAUAUCAGUAGUAAAAAAAUAAAAUUACUACUGAGAAGGCACAUGAGGAUCACCCAUGUGCCAA [EX4 337: Super Stable 37]” are 21.3 nM and 27.6 nM.
Turning to “CUCUAGUCAGGAUAUGGAAGAAAAGAAGAGAAAGAAAAGAACCAGAAGGGACAUGAGGAUCACCCAUGUAAGAA [EteRNA is fun!]”, the “apparent KD of MS2 coat protein” value in data set [1] was found to be 78.2 nM; in data set [2], 41.8 nM.
For “CUCUUGUAAGGAUAUAAAUGAAAAGAAGUGAAAGAAAAGAAUUAGAAGGUACAUGAGGAUCACCCAUGUUAGAA [EteRNA is fun!]”, the “apparent KD of MS2 coat protein” value in data set [1] worked out at 22.1 nM; in data set [2] it was 18.5 nM.
“CUCUUGUGAGGAUAUGAAAGAAAAGAAGAGAAAGAAAAGAAUCAGAAGGCACAUGAGGAUCACCCAUGUAAGAA [EteRNA is fun!]”: the “apparent KD of MS2 coat protein” value in data set [1] was 27.4 nM; in data set [2], 106 nM.
Turning to “CUCUUGUGAGGAUAUGUAAGAAAAGAAAAGAAAGAAAAGAAACAGAAGGCACAUGAGGAUCACCCAUGUAAGAA [EteRNA is fun!]”, the “apparent KD of MS2 coat protein” value turned out to be 31.7 nM in data set [1] and 45.9 nM in data set [2].
For the sequence “GAAAAGGUAGGAUAUACGAAAAAAAAGGGUAAAAUAAAUAAACAUGAGGAUCACCCAUGUAGAAGGACCAAAAG [Mat - Exclusion 2 - Tesla mod - D39]”, the entries for the “apparent KD of MS2 coat protein” value in data set [1] and in data set [2] were 30.1 nM and 49.6 nM, respectively.
For the sequence “GAAAAGUCAGGAUAUACAGAAAAAAAAACGAAAAAAAAUCUGUAGAAGGGACAUGAGGAUCACCCAUGUAAAAG [Mat - Exclusion 4 - Mayanna - D123]”, the results for the “apparent KD of MS2 coat protein” value in data set [1] and in data set [2] were 52.6 nM and 38.7 nM, respectively.
The corresponding values for “GAAAAGUGAGGAUAUACAGAUAAAAAAACGAAAAAAAAUCUGUAGAAGGCACAUGAGGAUCACCCAUGUAAAAA [Mat - Exclusion 4 - Mayanna - D106]” are 31.7 nM and 29.8 nM.
Consider “GAAAAGUGAGGAUAUGCGAAGGCGUCUGAUAGACGAGGCUAGCAGAAGGCACAUGAGGAUCACCCAUGUGGGAG [Mat - Exclusion 4 - Eli mod - D92]”, for which the “apparent KD of MS2 coat protein” value in data set [1] came to 61.9 nM; in data set [2] it was 76.4 nM.
In the case of “GACUAGUCAGGAUAUACGAACAUGUCAAAAGACGUGAAGGAACAUGAGGAUCACCCAUGUAGAAGGGACUAGCA [Diamond 19]”, the “apparent KD of MS2 coat protein” value came to 25.2 nM in data set [1] and 17.7 nM in data set [2].
The corresponding values for “GAUUAGUGAGGAUAUACAUGAGGAUCACCCAUGUGUAAAAAAAAACGCAAAAAAGAAUGUAGAAGGCACUAAAG [Mat - Exclusion 3 - Mayanna mod - D103]” are 21.6 nM and 31.4 nM.
